Measured values reported in US6900033 (dated 2005).
Positions of bridges follow the written chain, without caps; N, C: chain ends.

B1: DX-513 (peptide)
chain: Ac-GDLHACRPVRGDPWWACTLGDPEGGG-NH2
modifications: disulfide 6-17 (inferred)
B2: DX-512 (peptide)
chain: Ac-GDRLHCKPQRQSPWMKCQHLDPEGGG-NH2
modifications: disulfide 6-17 (inferred)

Molecular target: ACE-2 (human)
Experiment: other, ACE-2 enzyme inhibition

Chain of ACE-2 (human) (Q9BYF1 1-740): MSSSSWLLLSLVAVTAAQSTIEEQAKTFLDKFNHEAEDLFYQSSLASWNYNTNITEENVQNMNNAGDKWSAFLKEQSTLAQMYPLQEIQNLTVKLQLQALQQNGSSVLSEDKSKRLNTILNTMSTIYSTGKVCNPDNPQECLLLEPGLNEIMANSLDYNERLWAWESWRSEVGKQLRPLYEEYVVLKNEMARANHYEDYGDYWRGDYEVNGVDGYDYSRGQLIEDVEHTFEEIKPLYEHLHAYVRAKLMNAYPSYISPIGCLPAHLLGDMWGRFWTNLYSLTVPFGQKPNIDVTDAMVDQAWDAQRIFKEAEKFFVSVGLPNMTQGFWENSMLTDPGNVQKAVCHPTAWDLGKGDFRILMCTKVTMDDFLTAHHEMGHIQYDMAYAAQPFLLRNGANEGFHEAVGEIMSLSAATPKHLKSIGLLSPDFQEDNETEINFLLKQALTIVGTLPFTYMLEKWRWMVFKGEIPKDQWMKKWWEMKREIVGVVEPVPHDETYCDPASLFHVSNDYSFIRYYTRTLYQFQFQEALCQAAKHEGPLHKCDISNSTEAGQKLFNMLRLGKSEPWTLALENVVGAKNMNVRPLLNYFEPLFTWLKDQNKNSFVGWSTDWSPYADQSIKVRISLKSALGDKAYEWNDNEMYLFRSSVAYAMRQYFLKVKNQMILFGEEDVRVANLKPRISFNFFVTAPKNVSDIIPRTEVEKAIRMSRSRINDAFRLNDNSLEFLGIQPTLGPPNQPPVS

Binder | Ki [nM]
B1 | 150
B2 | 150
